In patent US20130086703:

Molecular target: T1, human Keratin 17
T1 chain: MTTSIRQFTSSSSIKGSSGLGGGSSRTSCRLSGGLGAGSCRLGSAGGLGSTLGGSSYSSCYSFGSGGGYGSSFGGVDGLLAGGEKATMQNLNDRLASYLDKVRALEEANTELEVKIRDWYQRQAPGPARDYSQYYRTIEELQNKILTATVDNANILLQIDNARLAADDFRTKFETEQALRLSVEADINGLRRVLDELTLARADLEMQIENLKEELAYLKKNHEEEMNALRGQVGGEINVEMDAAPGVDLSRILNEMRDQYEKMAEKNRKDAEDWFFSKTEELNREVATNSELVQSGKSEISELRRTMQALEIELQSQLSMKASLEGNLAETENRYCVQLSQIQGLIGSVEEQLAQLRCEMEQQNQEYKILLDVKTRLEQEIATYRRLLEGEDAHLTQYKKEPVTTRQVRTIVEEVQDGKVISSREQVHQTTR

B1: RgpB (protein)
chain: YTPVEEKENGRMIVIVPKKYEEDIEDFVDWKNQRGLRTEVKVAEDIASPVTANAIQQFVKQEYEKEGNDLTYVLLVGDHKDIPAKITPGIKSDQVYGQIVGNDHYNEVFIGRFSCESKEDLKTQIDRTIHYERNITTEDKWLGQALCIASAEGGPSADNGESDIQHENIIANLLTQYGYTKIIKCYDPGVTPKNIIDAFNGGISLANYTGHGSETAWGTSHFGTTHVKQLTNSNQLPFIFDVACVNGDFLYNVPCFAEALMRAQKDGKPTGTVAIIASTINQSWASPMRGQDEMNEILCEKHPNNIKRTFGGVTMNGMFAMVEKYKKDGEKMLDTWTVFGDPSLLVRTLVPTKMQVTAPANISASAQTFEVACDYNGAIATLSDDGDMVGTAIVKDGKAIIKLNESIADETNLTLTVVGYNKVTVIKDVKVEG
- enzymatic degradation products detected by mass spectrometry (on spot profiling): peptides consisting of the amino acid sequences shown by SEQ ID NOs: 6-10 (peptides 8-12) were newly identified as RgpB degradation products of human Keratin 17
